For assay [1], the target named is T1, full-length ApoE in human brain extract from Alzheimer's disease patients (human, UniProt P02649 19-317).
T1 construct: mature; Endogenous protein on Western blot or in solution (IP); also called ApoE full-length protein
The assay can be described thus: Western blot of AD brain RIPA 2% SDS extract; anti-A199 antibody at 2 ug/ml as primary antibody. How it is done:
RIPA 2% SDS brain extract containing approximately 60 μg total protein was mixed with 2×Laemmli sample buffer, boiled for 5 min at 95° C. and loaded onto SDS-PAGE gels (Bolt™ 12% Bis-Tris Plus 10 well, Thermo Fisher, cat. no. NW00120BOX). Gels were run for 30-40 min at 180 V, after which proteins were transferred from the gels onto nitrocellulose membranes using the Trans-Blot® Turbo™ system (Bio-Rad). […] Membranes were washed and incubated for 1 h at room temperature with the detection antibody anti-mouse-800CW (LI-COR, cat. no. 925-32210) diluted 1:25000 in Intercept® PBS Blocking Buffer (LI-COR) with 0.1% TWEEN®-20. Membranes were washed and images acquired using Odyssey® FC (LI-COR).

Assay [2] addresses T2, recombinant C-terminal ApoE fragment A199-HIS (ApoE-A199-H299-10xHIS) (human, UniProt P02649 217-317).
T2 construct: also called A199-HIS fragment
The assay can be described thus: SPR (Biacore 8K), A199-HIS amine-coupled on CM5, antibody as analyte, bivalent analyte fit (kd1). On the technique in general: SPR reads the build-up and loss of mass on a sensor chip optically.

Assay [3] addresses T2, recombinant C-terminal ApoE fragment …. Kind of assay: direct ELISA, A199-HIS coated at 0.1 µM. How it is done: (§1) Selectivity evaluation of purified monoclonal antibodies by direct ELISA: The direct ELISA described below was used to evaluate the binding selectivity of the purified monoclonal antibodies produced in Example 17.
(§2) The screening was performed according to standard ELISA protocols. Briefly, 1 μg/ml solutions of BSA-conjugated neo-epitope peptides and negative control peptide, and 0.1 μM recombinant C-terminal ApoE fragment and full-length ApoE (Abcam, cat. no. ab50243) were prepared by dilution in PBS. 50 μl/well were added to an ELISA half-area 96 well microtiter plate, and the plate was sealed with adhesive sealer and incubated over night at 4° C. After discarding the solution, the plates were blocked with 150 μl/well of protein-free blocking solution (Pierce) for 1 h at room temperature with shake (600-900 rpm). The plates were washed four times with washing buffer containing 0.28 mM NaH₂PO₄, 2.5 mM Na₂HPO₄, 150 mM NaCl, 0.1% TWEEN®-20 and 0.0075% Kathon CG. Purified monoclonal antibodies of interest were 3-fold serially diluted with a starting dilution at 3 μg/ml (mixed 1:2 with dilution buffer (PBS with 0.1% BSA and 0.05% TWEEN®-20)). An anti-ApoE C-terminal antibody was used as a reference antibody (ApoE E-8 mouse monoclonal, Santa Cruz Biotechnology, cat. no. sc-393302). 50 μl/well were added into the ELISA plates and incubated for 2 h at room temperature with shake (600-900 rpm). The plates were washed four times as described previously. […] After another wash (as described previously), 50 μl/well of K-Blue® aqueous substrate (Neogen) were added, and the reaction was stopped after 5-15 min with 50 μl/well of 0.5 M H₂SO₄. The optical density at 450 nm was read using an ELISA reader (Tecan).

The target is the same in assay [4]. Kind of assay: SPR (Biacore 8K), A199-HIS amine-coupled on CM5, antibody as analyte, bivalent analyte fit (ka1).
For assay [5], the target named is T3, A199 N-terminal neo-epitope peptide AGQPLQE-Acp-C (SEQ ID NO:55) conjugated to BSA (human, not fully specified (residue 9); printed as AGQPLQE-Acp-C; also: C-terminal Cys conjugated to BSA carrier).
T3 construct: BSA carrier
T3 peptide: AGQPLQE[Ahx]C
Kind of assay: direct ELISA after limiting dilution. (In general: An ELISA detects its analyte on a solid surface through an enzyme-linked reagent.)

Assay [6] deals with T2, recombinant C-terminal ApoE fragment …. The assay can be described thus: SPR (Biacore 8K), A199-HIS amine-coupled on CM5, antibody as analyte, bivalent analyte fit (KD1).
Assay [7] deals with T4, L198 N-terminal neo-epitope peptide LAGQPL-Acp-C (SEQ ID NO:52) conjugated to BSA (human, not fully specified (residue 8); printed as LAGQPL-Acp-C; also: C-terminal Cys conjugated to BSA carrier).
T4 construct: BSA carrier; also called L198-BSA peptide
T4 peptide: LAGQPL[Ahx]C
Kind of assay: direct ELISA; proteins coated at 0.1 uM, BSA peptides at 1 ug/ml; antibody in 3-fold dilutions from 3000 ng/ml; blank reduced OD 450 nm. Here is the method:
as §1, §2

Assay [8] concerns the target T5, recombinant full-length ApoE4 (aa 1-299; SEQ ID NO:45; Abcam cat. no. ab50243) (human, UniProt P02649 19-317).
T5 construct: Bought protein; also called recombinant ApoE4 full-length protein
The description is as above. How it is done:
as §1, §2

Assay [9] has as its target T6, A199 N-terminal neo-epitope peptide AGQPLQ-Acp-C (SEQ ID NO:51) conjugated to BSA (human, not fully specified (residue 8); printed as AGQPLQ-Acp-C; also: C-terminal Cys conjugated to BSA carrier).
T6 construct: BSA carrier; also called A199-BSA peptide
T6 peptide: AGQPLQ[Ahx]C
Kind of assay: direct ELISA, A199-BSA peptide coated at 1 µg/ml. Here is the method:
as §1, §2

In assay [10] the target is T7, negative control peptide AATVGSLAGQPLQER-Acp-C (SEQ ID NO:53) conjugated to BSA (human, not fully specified (residue 17); printed as AATVGSLAGQPLQER-Acp-C; also: C-terminal Cys conjugated to BSA carrier).
T7 construct: BSA carrier; also called 192-206 BSA-conjugated peptide
T7 peptide: AATVGSLAGQPLQER[Ahx]C
The assay can be described thus: direct ELISA; proteins coated at 0.1 uM, BSA peptides at 1 ug/ml; antibody in 3-fold dilutions from 3000 ng/ml; blank reduced OD 450 nm. Here is the method:
as §1, §2

For assay [11], the target named is T8, G200 N-terminal neo-epitope peptide GQPLQE-Acp-C (SEQ ID NO:50) conjugated to BSA (human, not fully specified (residue 8); printed as GQPLQE-Acp-C; also: C-terminal Cys conjugated to BSA carrier).
T8 construct: also called G200-BSA peptide; G200-peptide
T8 peptide: GQPLQE[Ahx]C
Described as above. How it is done:
as §1, §2

Assay [12] addresses 23D5, recombinant IgG2c antibody. The assay can be described thus: inhibition ELISA: antigen in solution varied, antibody 23D5 at 0.05 µg/ml, plate coated with G200-BSA peptide. How it is done: (§3) The pre-incubated samples were transferred (50 μl/well) to the blocked ELISA plates, and plates were incubated for 25 min at room temperature without shaking. Plates were washed as described above. Alkaline phosphatase conjugated anti-mouse IgG detection antibody (Mabtech, cat. no. 3310-4) was diluted 1:1000 and added to each plate (50 μl/well). The plate was sealed and incubated with shaking (900 rpm) for 45 min at room temperature and subsequently washed as described above. Alkaline phosphatase substrate (50 μl/well) was added to the plate and the optical density was read every 15 min at a wavelength of 405 nm for up to 120 min. The IC50 values were determined from a log inhibitor concentration response curve (FIG. 17).

Assay [13] concerns the target T9, 7B10, recombinant IgG2c antibody.
T9 construct: also called 7610
Kind of assay: inhibition ELISA: antigen in solution varied, antibody 7B10 at 0.05 µg/ml, plate coated with G200-BSA peptide. Here is the method: as §3

Assay [14] deals with 7C7, recombinant IgG2c antibody. Kind of assay: inhibition ELISA: antigen in solution varied, antibody 7C7 at 0.05 µg/ml, plate coated with G200-BSA peptide. How it is done: as §3
For assay [15], the target named is 17G4, recombinant IgG2c antibody. The assay can be described thus: inhibition ELISA: antigen in solution varied, antibody 17G4 at 0.05 µg/ml, plate coated with G200-BSA peptide. How it is done: as §3
For assay [16], the target named is 28F2, recombinant IgG2c antibody. Kind of assay: inhibition ELISA: antigen in solution varied, antibody 28F2 at 0.05 µg/ml, plate coated with G200-BSA peptide. Here is the method: […] of each synthetic ApoE peptide, recombinant C-terminal ApoE fragment G200-HIS and full-length ApoE4 were prepared by 4-fold dilution starting from 1000 ng/ml in 96 well storage plates (30 μl final volume). Each recombinant antibody to be tested was added (30 μl) to the serial dilutions of each of the synthetic ApoE peptides, G200-HIS or full-length ApoE4 at a final concentration of 0.05 μg/ml per well. Samples were pre-incubated for 45 min at room temperature with shaking (900 rpm).
as §3

Non-standard residues stand in square brackets, D forms with d. No end group written: not given here. Ahx = NCCCCCC(=O)O

T5 sequence (P02649 19-317 C130R limits assumed): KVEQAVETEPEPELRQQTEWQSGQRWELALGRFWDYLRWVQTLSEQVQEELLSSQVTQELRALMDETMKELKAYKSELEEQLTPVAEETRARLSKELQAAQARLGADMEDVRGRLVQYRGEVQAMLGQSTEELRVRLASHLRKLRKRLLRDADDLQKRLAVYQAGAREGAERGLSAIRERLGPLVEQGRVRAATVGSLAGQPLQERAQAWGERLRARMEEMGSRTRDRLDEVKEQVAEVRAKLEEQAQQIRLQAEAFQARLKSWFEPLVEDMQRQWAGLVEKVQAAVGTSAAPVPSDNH
T1 sequence (P02649 19-317): as the sequence (P02649 19-317 C130R limits assumed) above, with R112C counted along it
Sequence of 7C7, recombinant IgG2c antibody (VH, as listed by the source, chain 1 of 2): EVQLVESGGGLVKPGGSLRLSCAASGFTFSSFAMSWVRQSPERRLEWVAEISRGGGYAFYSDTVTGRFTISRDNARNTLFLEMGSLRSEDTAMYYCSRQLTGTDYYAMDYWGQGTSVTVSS
Sequence of 7C7, recombinant IgG2c antibody (VL, as listed by the source, chain 2 of 2): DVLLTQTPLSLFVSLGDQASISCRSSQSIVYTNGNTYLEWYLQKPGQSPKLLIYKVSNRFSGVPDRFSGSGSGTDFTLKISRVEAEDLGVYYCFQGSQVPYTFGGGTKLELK
Sequence of 23D5, recombinant IgG2c antibody (VH, as listed by the source): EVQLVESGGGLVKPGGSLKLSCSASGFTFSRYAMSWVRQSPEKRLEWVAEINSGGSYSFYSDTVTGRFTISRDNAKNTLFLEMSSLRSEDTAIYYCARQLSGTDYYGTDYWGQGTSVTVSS
Sequence of 28F2, recombinant IgG2c antibody (VH, as listed by the source): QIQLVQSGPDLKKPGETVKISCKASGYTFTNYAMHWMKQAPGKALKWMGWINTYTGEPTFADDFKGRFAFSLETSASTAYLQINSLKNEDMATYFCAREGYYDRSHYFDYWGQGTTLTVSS
T9 sequence (VH, as listed by the source): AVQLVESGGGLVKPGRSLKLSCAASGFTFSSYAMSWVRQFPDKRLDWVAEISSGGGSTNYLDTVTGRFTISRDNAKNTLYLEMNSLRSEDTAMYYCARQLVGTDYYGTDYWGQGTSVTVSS
Sequence of 17G4, recombinant IgG2c antibody (VH, as listed by the source): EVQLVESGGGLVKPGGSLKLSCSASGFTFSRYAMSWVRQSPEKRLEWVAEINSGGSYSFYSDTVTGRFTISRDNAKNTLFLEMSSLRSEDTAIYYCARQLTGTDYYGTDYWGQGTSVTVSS

B1: 63F6, monoclonal anti-A199 antibody (antibody, IgG2b, V domains shown)
VH: QVQLQQPGTELVKPGASVKLSCKASGYTFTNYWMHWVKQRPGQGLEWIGNINPRNGGTNYNEKFKSKATLTVDKSSSTDYMQLSSLTSEDSAVYYCARGLYDYDFDYWGQGTTLTVSS
VL: DVLMTQTPLSLPVSLGDQASISCRSSQSIVHGNGNTYLQWFLQKPGQSPKLLIYKVSSRFSGVPDRFSGSGSGTDFTLKISRVEAEDLGVYYCFQGSHVPFTFGSGTKLEIK
B1: the binding result in assay [1] is “no binding (tested: 2 ug/ml (text))”; in assay [5] it was “binds”; in [7] it was “no binding (tested: 3000 ng/ml)”; in [8] it was “no binding (tested: 3000 ng/ml)”. For the same molecule, the koff in [2] worked out at 0.0207 s⁻¹. Also, the results for the EC50 in assay [3] and in assay [9] were 1.8 ng/mL and 3.8 ng/mL, respectively. Also, in [4], the association rate constant (kon) was found to be 150000 M⁻¹ s⁻¹. Besides, the Kd in assay [6] came out at 137 nM.

B2: 67G3, monoclonal anti-A199 antibody (antibody, IgG2b, V domains shown)
VH: QVQLQQPGTELVKPGASVKLSCKASGYTFTRYWLHWVKQRPGQGLEWIGNINPTNGGANYNEKFKNKATLTVDKSSSTAYMQLSSLTSEDSAVYYCSRGAYDYDCDYWGQGTTLTVSS
VL: DVLMTQTPLSLPVSLGDQASISCRSSQRIVHSNGNIYLQWYLQKPGQSPKLLIYKVSNRFSGVPDRFSGSGSGTDFTLKISRVEAEDLGVYYCFQGSHVPYTFGGGTKLEIK
For the molecule B2, the binding result in assay [1] is reported as “no binding (tested: 2 ug/ml (text))”; in assay [5], “binds”; in assay [8], “no binding (tested: 3000 ng/ml)”. In assay [2], the koff is 0.0172 s⁻¹. For the same molecule, the EC50 came out at 3.5 ng/mL in [3] and 4.4 ng/mL in assay [9]. The kon in [4] worked out at 180000 M⁻¹ s⁻¹. The Kd in assay [6] came out at 83 nM.

B3: 36A12, monoclonal anti-A199 antibody (antibody, IgG1, V domains shown)
VH: EVKLEESGGGLVQPGGSMKLSCVASGFTFSNYWMNWVRQSPEKGLEWIGEIKLKSNNYGTHYAESVKGRFTISRDDSKSSVYLQMNNLRAEDTGIYYCTRDTEVVAGAHWGQGTLVTVSA
VL: NIMMTQSPSSLAVSAGEKVTMSCKSSQSVLYNSNQKNYLAWYQQKPGQSPKLLIYWASTRDSGVPDRFTGSGSGTDFTLTISSVRAEDLAVYFCQQYLSSLTFGAGTKLELK
As to B3, the binding result was “no binding (tested: 2 ug/ml (text))” in assay [1]; “binds” in [5]; “no binding (tested: 3000 ng/ml)” in assay [7]; “no binding (tested: 3000 ng/ml)” in [8]; “no binding (tested: 3000 ng/ml)” in assay [10]; “no binding (tested: 3000 ng/ml)” in [11]. Further, the EC50 came out at 20.2 ng/mL in assay [3] and 5.1 ng/mL in [9].

B4: 38G9, monoclonal anti-A199 antibody (antibody, IgG1, V domains shown)
VH: EVKLEESGGGLVQPGGSMKLSCVASGFTFSNYWMNWVRQSPEKGLEWVGEIKLKSNNYGTHYAESVKGRFTISRDDSKSSVYLQMNNLRAEDTGIYYCTRDTEVVAGAHWGQGTLVTVSA
VL: NIMMTQSPSSLAVSAGEKVTMSCKSSQSVLYSSNQKNYLAWYQQKPGQSPKLLIYWASTRESGVPDRFTGSGSGTDFTLTISSVQAEDLAVYFCQQYLSSLTFGAGTKLELK
B4: the binding result is listed as “no binding (tested: 2 ug/ml (text))” in assay [1]; “binds” in [5]; “no binding (tested: 3000 ng/ml)” in assay [7]; “no binding (tested: 3000 ng/ml)” in assay [8]; “no binding (tested: 3000 ng/ml)” in assay [10]; “no binding (tested: 3000 ng/ml)” in assay [11]. The EC50 was 39.7 ng/mL in assay [3] and 4.6 ng/mL in assay [9].

B5: recombinant C-terminal ApoE fragment G200-HIS (ApoE-G200-H299-10xHIS) (other)
chain: GQPLQERAQAWGERLRARMEEMGSRTRDRLDEVKEQVAEVRAKLEEQAQQIRLQAEAFQARLKSWFEPLVEDMQRQWAGLVEKVQAAVGTSAAPVPSDNHHHHHHHHHHH
notes: also called G200-HIS fragment
As to B5, the IC50 was 2.4 nM in [12]; 2.8 nM in assay [13]; 2.8 nM in assay [14]; 3 nM in assay [15]; 2.4 nM in [16].

The term koff denotes the first-order rate constant of dissociation. A word on the EC50: it is the concentration needed to bring the measured effect to its halfway point. The kon is a measure of how fast the partners come together. What is called IC50 is the concentration that gives 50% inhibition.

For the origin of these results see US20220242939A1 (BIOARCTIC, published 2022).
